Measurements from PMC12059597.

Tests used:
[1] = system: CD44 (predominantly standard isoform CD44s) on human TNBC cells (Homo sapiens (Cis-Pt-R, MDA-MB-231, BT-549 cells)), P16070-12; experiment: flow cytometry cell binding; conditions: apparent Kd on whole Cis-Pt-R cells; 2'-fluoro pyrimidines (2'F-Py) in the entire sequence; Flow cytometry: 150 nM Alexa 647-sTN58, serum-free medium, 0.1 mg/mL yeast tRNA, 0.1 mg/mL salmon sperm DNA, 10 min RT, after 30-fold excess unlabeled SCR …; cited from earlier work
[2] = system: CD44 (predominantly standard isoform CD44s) on human TNBC cells (Homo sapiens (Cis-Pt-R, MDA-MB-231, BT-549 cells)), P16070-12; experiment: flow cytometry cell binding with siRNA knockdown; conditions: 150 nM aptamer, 2'-fluoro pyrimidines (2'F-Py) in the entire sequence, Flow cytometry: 150 nM Alexa 647-sTN58, serum-free medium, 0.1 mg/mL yeast tRNA, 0.1 mg/mL salmon sperm DNA, 10 min RT, after 30-fold excess unlabeled SCR …, scale: % reduction of binding on CD44 knockdown vs siRNA ctrl

Sequence of CD44 (predominantly standard isoform CD44s) on human TNBC cells (Homo sapiens (Cis-Pt-R, MDA-MB-231, BT-549 cells)), P16070-12 (P16070 other isoform, or with tags, fused parts or gaps): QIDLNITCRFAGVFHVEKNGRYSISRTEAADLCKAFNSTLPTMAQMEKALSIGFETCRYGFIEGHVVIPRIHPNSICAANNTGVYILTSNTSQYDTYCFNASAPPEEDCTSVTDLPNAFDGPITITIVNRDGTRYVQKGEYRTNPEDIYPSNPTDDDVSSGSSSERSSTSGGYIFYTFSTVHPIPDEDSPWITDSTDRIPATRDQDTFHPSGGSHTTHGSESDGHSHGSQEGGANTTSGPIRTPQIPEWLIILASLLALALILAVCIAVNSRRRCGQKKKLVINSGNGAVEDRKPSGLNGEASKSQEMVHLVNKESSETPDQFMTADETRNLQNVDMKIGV

## GGACAUAUGAUGCAACGUUGUGGUCCCGUUUGCACUUUGUUUACG [sTN58]
[1]
  Kd: 10 nM
[2]
  binding signal: 55
